Test results reported in patent US20180011085A1.

Target: purified recombinant M1 protein from influenza virus labeled with His-tag (influenza virus)
Assay: Western blot of 0.1-10 ng M1-HisTag, HRP-conjugated antibody 1:2000, chemiluminescence

antibody against His-tag conjugated with horseradish peroxidase (Sigma, #A7058-1VL)
limit of detection: 500 pg
